The values that follow come from paper PMC6458997.

The target in one data set is T1, AimR (phi3T) (Bacillus phage phi3T, UniProt P0DOE3 1-378).
T1 sequence: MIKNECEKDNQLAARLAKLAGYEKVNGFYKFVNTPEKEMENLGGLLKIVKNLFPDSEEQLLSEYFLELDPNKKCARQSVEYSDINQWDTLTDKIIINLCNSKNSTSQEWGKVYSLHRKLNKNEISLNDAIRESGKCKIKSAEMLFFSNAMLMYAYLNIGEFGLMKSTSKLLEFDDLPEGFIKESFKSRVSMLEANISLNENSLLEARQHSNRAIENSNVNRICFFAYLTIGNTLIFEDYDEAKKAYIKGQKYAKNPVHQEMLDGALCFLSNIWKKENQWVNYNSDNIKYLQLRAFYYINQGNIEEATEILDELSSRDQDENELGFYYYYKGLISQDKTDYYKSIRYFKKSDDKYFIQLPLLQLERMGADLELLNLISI
In words: EMSA; EMSA: 50 mM HEPES pH 7.5, 5 mM MgCl2, 75 mM NaCl, 0.5 mM EDTA; 0.4 uM DNA, 4 uM AimR; 10 min at room temperature; 8% PAGE in TBE at 4 C or agarose in TAE at room temperature. The settings on record: protein: recombinant; tags: N-terminal 6xHis; same purification protocol as SPbeta AimR.

In data set [1] the target is T2, AimR (SPbeta) (Bacillus subtilis phage SPbeta (cloned …, UniProt O31927 1-386)).
T2 sequence: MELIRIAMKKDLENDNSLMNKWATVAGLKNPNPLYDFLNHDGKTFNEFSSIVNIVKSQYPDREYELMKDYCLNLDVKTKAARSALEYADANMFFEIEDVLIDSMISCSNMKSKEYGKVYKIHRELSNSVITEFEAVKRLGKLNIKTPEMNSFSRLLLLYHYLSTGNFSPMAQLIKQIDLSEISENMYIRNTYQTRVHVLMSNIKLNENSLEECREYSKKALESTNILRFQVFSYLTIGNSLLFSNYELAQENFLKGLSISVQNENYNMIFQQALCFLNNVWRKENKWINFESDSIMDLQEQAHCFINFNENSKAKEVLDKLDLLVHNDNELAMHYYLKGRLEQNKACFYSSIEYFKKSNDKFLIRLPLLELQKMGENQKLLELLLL
Nature of the data set: X-ray crystallography; 2.2 A; 200 mM MgCl2, pH 7.5; AimR:DNA 2:1; EMSA: 50 mM HEPES pH 7.5, 5 mM MgCl2, 75 mM NaCl, 0.5 mM EDTA; 0.4 uM DNA, 4 uM AimR; 10 min at room temperature; 8% PAGE in TBE at 4 C or agarose in TAE at room temperature. The settings on record: protein: recombinant; tags: N-terminal 6xHis-TEV, cleaved; chain copies: 2. (Mobility shift assays separate free from complexed probe on a gel.)

Data set [2] concerns the target T2, AimR (SPbeta). Nature of the data set: EMSA; apo; EMSA: 50 mM HEPES pH 7.5, 5 mM MgCl2, 75 mM NaCl, 0.5 mM EDTA; 0.4 uM DNA, 4 uM AimR; 10 min at room temperature; 8% PAGE in TBE at 4 C or agarose in TAE at room temperature. The settings on record: protein: recombinant; tags: N-terminal 6xHis-TEV, cleaved; chain copies: 2.

B1: phi3T operator 37 bp (dsDNA)
DNA 1: ATGTTCCAGAAATTCAAAAATCAAAAAATAAGAACAT
DNA 2: ATGTTCTTATTTTTTGATTTTTGAATTTCTGGAACAT
As for B1, in the data set with AimR (phi3T), the binding result is “binds”.

B2: crystal operator 43 bp (dsDNA)
DNA 1: TTGATCACTAGATGTTATTAAAACCTAATATTTAAGTGATGGC
DNA 2: GCCATCACTTAAATATTAGGTTTTAATAACATCTAGTGATCAA
As for B2, the binding result with AimR (SPbeta) [1] is reported as “binds”.

B3: SPbeta operator WT 45 bp (dsDNA)
DNA 1: GTTGATCACTAGATGTTATTAAAACCTAATATTTAAGTGATGGCC
DNA 2: GGCCATCACTTAAATATTAGGTTTTAATAACATCTAGTGATCAAC
As for B3, the binding result with AimR (SPbeta) [2] was “binds”.
